Measurements taken from the DeepSol protein solubility set.

Test: soluble on expression in E. coli; label from the status in PepcDB or PDB records

Sequence | soluble on expression in E. coli
SGALWDVPSPAATQKATLSEGVYRIMQRGLFGKTQVGVGIHMEGVFHTMWHVTRGSVICHETGRLEPSWADVRNDMISYGGGWRLGDKWDKEEDVQVLAIEPGKNPKHVQTKPGLFKTLTGEIGAVTLDFKPGTSGSPIINKKGKVIGLYGNGVVTKSGDYVSAITQAERIGEGPDYEVDEDIFRKKRLTIMDLHPGAGKTKRILPSIVREALKRRLRTLILAPTRVVAAEMEEALRGLPIRYQTPAVKSDHTGREIVDLMCHATFTTRLLSSTRVPNYNLIVMDEAHFTDPCSVAARGYISTRVEMGEAAAIFMTATPPGSTDPFPQSNSPIEDIEREIPERSWNTGFDWITDYQGKTVWFVPSIKAGNDIANCLRKSGKRVIQLSRKTFDTEYPKTKLTDWDFVVTTDISEMGANFRAGRVIDPRRCLKPVILTDGPERVILAGPIPVTPASAAQRRGRIGRNPAQEDDQYVFSGDPLKNDEDHAHWTEAKMLLDNIYTPEGIIPTLFGPEREKTQAIDGEFRLRGEQRKTFVELMRRGDLPVWLSYKVASAGISYKDREWCFTGERNNQILEENMEVEIWTREGEKKKLRPKWLDARVYADPMALKDFKEFASGRK | soluble
MRKVLVFLKNSKKAFETFKRVERVLKDLNLSYKKFINRKELFKVLKPKDYELFLVIGGDGTFLSAARIASRFGVPLVGVNEGRFGFLTEIKKEEIKKVLPLVLEGRAKLQERLMIDVYLRSRNRLRYLGNYLNDAVISKSSIARIIRTKVFINGEEVLEVFGDGVILSTPTGSTAYALSAGGPIVYPESQNLLFVPICPHTLSNRPLVLPSKFEVKFKVVSENMEAFLTLDGQEGFHLKKGDEVIVKRSRYVCRMYSHPRKSFFGILKEKLRWG | soluble
MPIILEKGQKIDLTKGQPKVAKLQVGLGWDPIGQSGGFLSSLFGSKPNVDCDASVVMLEGDRFLNKNDLVYFGNKLSTCGSIIHSGDNLTGEGAGDDETIFVELHKVPSRINRLVFVVNIYDCVNRRQDFGMIRNAYIRIQNPQTGEELARYNLSDNYAGKTTLIAGEMYRHGSEWKFSAVGEGTQDKNLSEIVSRYQ | not soluble
MTTRKPFIICDFDGTITMNDNIINIMKTFAPPEWMALKDGVLSKTLSIKEGVGRMFGLLPSSLKEEITSFVLEDAKIREGFREFVAFINEHEIPFYVISGGMDFFVYPLLEGIVEKDRIYCNHASFDNDYIHIDWPHSCKGTCSNQCGCCKPSVIHELSEPNQYIIMIGDSVTDVEAAKLSDLCFARDYLLNECREQNLNHLPYQDFYEIRKEIENVKEVQEWLQNKNAGESSLKLEHHHHHH | soluble
MEKSAGRGRPSVSVERIVATALEAVDEVGAQAFNMRMLAERLGSGTATLYRHFASKDEILIYVVDSVLGELLADQPEAVELVPQGQGSEGYSWQKACASGAERLYGVLRRHPGILPLLVSQIPIGPNGLKRREQGIALFLANGFPAELAARAYTSVAHYVLGFAIQQHSSASSEAAEGEELVEFFAALDASEYPAIATAGRHLPGISVEEEFRFGLKLIIDGLELAASAWRKADGC | not soluble
MGSDKIHHHHHHMKASCYGSVGMAAMVAANLGEALKIFEQFIGSRCDAFKPELKQEQNDVYWSIHQPLKSFQLSSDATIFLLLGFIHIAKHLTGLSALGTVQLNMPEPIGFSKIKDKLGVSFLFDQKHNIWIFPKEYLMQPVLTADPMLAPLLKAQCKKDIDKLKLRSGWKAEISQVIKKLLINSQGEILKVKQVAQMMNMSERSLQRYLAIENTSFSALVDLTRKQYAQELLQNSLMSIESVALSLGYADTSHFTRAFKRWMGVTPKYYQTQLKLKNLEIRE | not soluble
MSLQGKFQPTWESLANYKIPEWFRNVKFGIWAHWGPQCVEGSGDWMARSLYMENSPEYRHHIANYGHPSEFGFKDIIPLWKAEKWDPDKLVAFYKKIGAQYFFALGNHHDNMDLWDSKYQPWNSVNMGPKKDILKGWERAARKHGLYFGVSLHADHAWSWYETSQRHDTQGPKKGIPYDGKLTKADGKGKWWEGYDPQDLYAQNHPLSQDSWDNGTIHRQWAWGNGVCLPTQEYCTNFYNRTLDVINRYNPDLLYFDVTVAPFYPISDAGLKIAAHFYNHNMSMQKGKLNAVMFGKILDANQRKALVWDVERGAPNKIIDEPWQSCSCLGGWHYNTSIYNNNQYKSAADVVKLLVDIVSKNGNLLLSVPLRADGTFDEKEEKILNEFGNWMNINKEAIYQTRPWKIFGEGPIADKDVQLNAQGFNEWAYSKADAKEIRFTQTDKNLYATVLGWPEDGKILIRSLAEGNGLYPTKIGRVELLGYGKVSFTRTDKGLVVDIPAKSLKNIAPVLKIRKEGHHHHHH | soluble
KDIGSLTLALEQLKEKLRLKGYFDEENKLPKPHFPKRVAVITSQNSAAWADMKKIASKRWPMCELVCINTLMQGEGCVQSVVESIVYADSFHDTK | not soluble
MSLSDVAKKVGVSPITISRALRNPEIVSEDLRQTILRTVDEMGYIPNLAARALAGRHNGTVGVITPALHQHGFAGLMLGIEDRLRATEFGVQYSNTLHHADGEAGQLKSFLMQKPAGVIIAGAESYHDLLPLIEKAACPIAHITDLSQEPERLVVGLDHHAAGAEPTRFLLSRGYQRIGFIGGGTDVRSRRRREGYEAAMREAGRFDPDLAIGADAAGTTGLGRELLTRLLARVPDIDAVFAQNDELALGVLIECGVRGIRVPENFGICGFNDLEFSAFTEPSLTTVHIPRYEVGYRVADMLLRAVRSEPPGEEKVDCGFSVIPRGSTREGHHHHHH | soluble
MENILDYNEAELKQWMDKNGEKTFRAKQFFDWIYNGTFDFKDMKNLPQSTRERLEKNFYIGMPSVVKRLNSKKGDTVKFLFRYNDGNIIECVVMKYDYGNSICISTQVGCRMGCSFCASTIGGRVRDLTSGEILAQILKAQKEIGERISNIVLMGSGEPLDNYDNVIKFIRIVNSEKGLNIGQRHITLSTCGIVPRIYDLMKENLQITLAISLHASDDETRKKIMPIANRYSISEIIDCCKKYSDFTGRRITFEYSLVKDVNDDKESAKKLGELLSGMLCHVNLIPVNTVNETSYEKPESSKIKKFCDTLLKYKIESTIRKEMGADINAACGQLRRNYIEESEGK | not soluble
MRRNSKERKNRATRRSQGSYQEIIGRTWIFRGAHRGRVTRRNIIWHELIGLRVRIVGSTHPAFVGIEGYVIDETRNMLVIAGDRIWKVPKDVCIFEFEADDGTKIKIPGERLVGRPEMRLKKRWKKWLEHHHHHH | not soluble
MEKTTEGAFYTREYRNLFKEFGYSEAEIQERVKDTWEQLFGDNPETKIYYEVGDDLGYLLDTGNLDVRTAGMSYGMMMAVQMDRKDIFDRIWNWTMKNMYMTEGVHAGYFAWSCQPDGTKNSWGPAPDGEEYFALALFFASHRWGDGDEQPFNYSEQARKLLHTCVHNGEGGPGHPMWNRDNKLIKFIPEVEFSDPSYHLPHFYELFSLWANEEDRVFWKEAAEASREYLKIACHPETGLAPEYAYYDGTPNDEKGYGHFFSDSYRVAANIGLDAEWFGGSEWSAEEINKIQAFFADKEPEDYRRYKIDGEPFEEKSLHPVGLIATNAMGSLASVDGPYAKANVDLFWNTPVRTGNRRYYDNCLYLFAMLALSGNFKIWFPEGQEEEHLEHHHHHH | soluble
MSLKEFYIGDQFYLDGEPFKILSGAIHYFRVHPDDWYHSLYNLKALGFNTVETYVPWNMHEPRKGEFCYEGILDIERFLKLAQELGLYAIVRPSPYICAEWEWGGLPAWLMKEELRVRSSDSVYLQHLDEYYVSLIPKLAKLQLAQGGNVLMFQVENEYGSYGEEKAYLRAVAGLMRKHGLTAPLFTSDGSWRATLRAGTLIEDDVFVTGNFGSKARENFANMTAFFNEHQKNWPLMCMEFWDGWFNRWGDEIIRREPEEMVDSVMECIELGSLNLYMFHGGTNFGFMNGCSARGQIDLPQVTSYDYDAILDEAGNPTKKFYILQQRLKEVYPELEYAEPLVKEAKAFSDVSLHDKVSLFATLENVSDCVKGFYPKNMEELDQSTGYILYRTELERDKTEAERFRVVDARDRIQIYADGKFVATQYQTEIGDDVELDFKDDKLTLDILVENMGRVNYGHKLTAPTQSKGIGRGAMADLHFIGHWETYPLHLESVEDLDFSKGWEEGQAAFYRYQFELDELADTYLDMTGFGKGVVFVNNVNIGRFWEKGPILYLYIPKGYLKKGANEIVVFETEGKYREKIHFSQRPVIKDLEGHHHHHH | soluble
KYSLLEIGLKKDNGSSETIKLKREAIKFENNTVKSYIIKDAKKIGYISIPSFYSDDSNPNALGAANELSKEILKLKNENIEGLIIDLRNNGGGSLYEAVGMSGLFIDIGPLFYVLERSGKATLTKDMNRGTVYDGPLCIMVNGYSASASEIFSAAMQDNHRALIVGEQTYGKATGQSISQLDTTKSISTFSATDNMGATKITEIKLYRTSGFSYQGKGVTPDIILPYL | not soluble
MAGWVNPSFDREKLRSVIDSAERVLSERDKAREEAIRLARDVVRYSGWAVTAVHKGSLEEAEGHLARAEEAAGMLRSILEPYPDLMTAGFANNAFSEYVEARLFIDIITGRGLSSPDELRVPIVPYIQGLGDLVGELRRLSLELVRRGEFRKAWSLLDIMEAIYLELRSLDYPEALLPGVRHKADVARRLVDDTKAMLADLESRSQLEYRLKEVLKRLEA | soluble
MNKSRVVVGMSGGVDSSVAALLLKQQGYDVTGLFMKNWEEDDTDEYCSSRQDFLDAASVADILDIPLEVVNFSTEYRERVFNLFLKEYQAGRTPNPDVLCNSEIKFRAFLDHALNLGADWIATGHYAQVHETDGLFQLLKGEDGNKDQSYFLYRLNQQQLSHTIFPIGHLYKREVRKIAREHRLPNSTKKDSTGICFIGERPFREFLNRYLPANPGEIHTLDDQVVGEHLGVMYYTIGQRQGLGIGGTRQGSEQPWFVSGKDIKKNVLYVVQGHDHPALLRSSLTAADLSWISGTPPHQNWVYAAKIRYRQTDAPCAITHFEHDSCQIGFAAPQWGITPGQSVVVYESKVCLGGGVIIGSNDLEHHHHHH | not soluble
MGNCESRELVAQAKQNKIINTELDKAKKTDENIIKLLLLGAGESGKSTVLKQMKIIHNSGFSQEEISNKRNVVCANTVQAMGALLDGMKQLQFDFSTRVCNAHEKLIRETLNDKAEYGPFSDAMFNALTELWADKGVQCAYDKREFFYLHDSAKYFFDAIARVHTPNYVPTENDILHTRVPTMGVIEVNFTIKGKFFRVFDVGGQRSQRKKWIHCFDDAKAMIYVASLSEYDQVLLEDNTTNRMHESIQLFKQVINNKYFVNTSVILFLNKIDLFEEKIVTKKRSLGIAFESFSGPSQDLNAAVAFVEKKYRSMAENKEKNIYCHHTCATDTQQVQYVLDAVLDTILSTKLKGCGLY | not soluble
MAHHHHHHMTVAKKCMVVLQHGSHGTHLDLACLSQYLKAKDPRLIVWESYKNEGMRTDDGVVPCGERLADNLIREIKELCSTPTQSGGDGGREKVVVQMSFVCHSMGGLIVREALPRVWDKVESQKGKLEIEWNMFCTIATPHGGVCQMASTLRYYLGRLISFFYSTSYHDMFLGSDVLTDRLLSPKHLSCLAAFKRRLLVSSINDILVPLMSSGFMLTPSQRGLPGDMLREEQKQLCAFNEREMYDKMRTITEIPKEEWPANKFLAERRIAKTLVQAVGNFDSVVVDLRSPRLEELYEDRKRRTTAWYGANKRSHQAMVCKPPFDTVEEAFGFVSHMVGDEVLATFQE | not soluble
SGKMVSVINTVDTSHEDMIHDAQMDYYGTRLATCSSDRSVKIFDVRNGGQILIADLRGHEGPVWQVAWAHPMYGNILASCSYDRKVIIWREENGTWEKSHEHAGHDSSVNSVCWAPHDYGLILACGSSDGAISLLTYTGEGQWEVKKINNAHTIGCNAVSWAPAVVPGSLIDHPSGQKPNYIKRFASGGCDNLIKLWKEEEDGQWKEEQKLEAHSDWVRDVAWAPSIGLPTSTIASCSQDGRVFIWTCDDASSNTWSPKLLHKFNDVVWHVSWSITANILAVSGGDNKVTLWKESVDGQWVCISDVNKGQGSVSASVTEGQQNEQ | soluble
